Data taken from the nanobody polyreactivity screen of Harvey et al. (2022).

Test: yeast display, Sf9 membrane polyspecificity reagent, FACS + sequencing; frameworks hold sequencing errors
Outline: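 Galactose induction of a Saccharomyces cerevisiae BJ5465 synthetic nanobody display library ran 36–48 hours. The cells were then stained for 1 hour at 4 °C with 10% biotinylated, detergent-solubilized Sf9 membrane reagent, pulled down on streptavidin microbeads and FACS-sorted into low and high (top ~1%) gates on expression and reagent-binding fluorescence. Labels for polyreactivity follow the gate of origin.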

| Sequence | polyreactivity (PSR sort gate) |
| --- | --- |
| QVQLVESGAGLVQAGGRLRLSCAATGLTFYFYVMGWYRQAPGKERELVADISTSDDSTYYADSVKGRFTISRDNAKNTVYLQMNSLKPEDTSVYYCATATRTYSAWYEYDYWGQVTQVTVSS | low polyreactivity |
| QVQLVESGAGLVQAGGSLRLCCAASGFIFYLNTMGWYRQAPGKERELVAGITWRGGTTYYADSVKGRFTISRDNAKNSVYLQMNSLKPEDTAVYYCAARRYSRPYSYGFYYWGQGTLVTVSS | high polyreactivity |
| QVQLVESGAGLVQAGGSLRLCCAASGRIFDWYVMGWYRQAPGKEWELVAAINSGVSTKYADSVKGRFTISRDNAKNTVYLQMNSLKPEDTAVYYCAAQSFSDYRRTGRKSSYYYWGQVTQVTVSS | low polyreactivity |
| QVQLVESGAGLVQAGGSLRLICAASGLTFIYYAMGWYRQAPGKERELVAAISVSGGSTYYADSVKGRFTISRDNAKNTVYLQMNRLQREDTAVYYCAADWLVHKPRYQYSFDFWGQVTQVTVSS | low polyreactivity |
| QVQLVESGAGLVQAGGSLRLSCAASGFIFRQYAMGWYRQAPGQERELVAAISWSGGSTYYADSVKGRFTISRDNAKNTVYLQKNSLKPEDTAVYYCNVLTPPTDYDYWGQGTQVTVSS | high polyreactivity |
| QVQLVESGAGLVQAGGSLRLSCAASGFIFVKYAMGWYRQAPGKERELVAAISRSGGRTYYADSVKGRFTISRDNAKNNVYLQMNSLKPEDTAVYYCATDYYEDWRGYEDYWYRPYDYWGQGTQVTVSS | high polyreactivity |
| QVQLVESGAGLVQAGGSLRLSCAASGFIFYYYAMGRYRPAPGKERELVAAIDSSGGDTYFADSVKGRFSISRDHAKNTVYLQMNSLKPEDTAVYYCNARQRLISLYGNRLTYGYWGQGTQVTVSS | high polyreactivity |
| QVQLVESGAGLVQAGGSLRLSCAASGFTFDQYAMGWYRPATGKERELVAGISWGGGTTYYADSVKGRFTISRDNAKNTVYLHMNSLKPEDTAVYYCAAVRPGYPYYGSDYWGPGTQVTVSS | low polyreactivity |
| QVQLVESGAGLVQAGGSLRLSCAASGFTFFGDYAMGWYRQAPGKERELVAAIDWSGGTTYYADSVKGRFTISRDNAKNTVYLQMNSLKPEDTAVYYCARRYYYSYPPQEDDYWGQGTQVTVSS | high polyreactivity |
| QVQLVESGAGLVQAGGSLRLSCAASGFTFPYYAMGWYRQAPGKERELVAAINYSGSSTDYADSVKGRFTISRDNAKNTVYLQMNSLKPEDTAVYYCAATPAYYYQAVTEDDYWGQGTHVTVSS | high polyreactivity |
| QVQLVESGAGLVQAGGSLRLSCAASGFTFSRNAMGWYRPAPGKERELVASISGRGGRTYYADSVKGRFTISRDNAKKTVYLQMNSLKPEATAVYFCAARWRQRKSVRYGQQGYDYWGQGTQVTVSS | high polyreactivity |
| QVQLVESGAGLVQAGGSLRLSCAASGFTFYDYAMGWYRQAPGKERELVAAISRGGGSTYYADSVKGRFTISRDNAKNTVYLQMNSLKPEDTAVYYCNAALTRVSRFWGGDYYYWGQGTQVTVSS | high polyreactivity |
| QVQLVESGAGLVQAGGSLRLSCAASGGTFLYYAMGWYRQAPGKERELVAVINSNGGSTYYADSVKGRFTISRDNAKNTVYLQMNSLKPEDTAVYYCAADYQSYVYIGYGYWGQGTQVTVSS | low polyreactivity |
| QVQLVESGAGLVQAGGSLRLSCAASGIIFDWYTMGWYRQAPGKERELVAAISWRGGRTYYADSVKGRFTISRDNAKNTVYLQMNSLKPEDTAVYYCAAEAPVQPFYVFNTGIYELDYWGQGTQVTVSS | low polyreactivity |
| QVQLVESGAGLVQAGGSLRLSCAASGIISYRNGMGWYRQAPGKERELVASISKRADSTYYADSVKGGFTLSRDNAKNTVYLQMNSLKPEDTAVYYCAANFRDWHRYYPAGYLRRGYWGQGTQVTVSS | high polyreactivity |
| QVQLVESGAGLVQAGGSLRLSCAASGNTFYQYAMGWYRQAPGKERELVAAIDWSGGSTYADSVKGRFTISRDNAKNTVYLQMNSLKPEDTAVYYCEKYTYDYWGQGTQVTVSS | low polyreactivity |

| Sequence | polyreactivity (PSR sort gate) |
| --- | --- |
| QVQLVESGAGLVQAGGSLRLSCAASGRTFRYSAMGWYRQAPGKERELVAAISSRGNTYYADSVKGRFTISRDNAKNTVYLQMNTLKPEDTAVYYCAAYVYRVQYDFDYWGQGTQVTVSS | high polyreactivity |
| QVQLVESGAGLVQAGGSLRLSCAASGRTFYNNAMGWYRQAPGKERELVAAISQRTGRTYYADSVKGRFTISRDNAKNTVYLQMNSLKPEDTAVYYCAARTLSYEYNYWGQGTQVTVSS | high polyreactivity |
| QVQLVESGAGLVQAGGSLRLSCAASGRTFYYYAMGWYRQAPGKERELVAAISSNGGSTYADSVKGRFTISRDNAKNTVYLQMNSLKPEDTAVYYCAAEPWWQEGDYWGQGTQVTVSS | high polyreactivity |
| QVQLVESGAGLVQAGGSLRLSCAASGSIFVYNDMGWYRQAPGKERELVAAITSSGGSTYYADSVKGRFTISRDNAKKTVYLQMNSLKPEDTAVYYCNVWDRPPTGYDYWGQGTQVTVSS | low polyreactivity |
| QVQLVESGAGLVQAGGSLRLSCAASGSIFWYNAMGWYRQAPGKERELVAAITSGGTTSYADSVKGRFTISRDNAKNTVYLQMNSLKPEDTAVYYCNADAVPFPTLVTYLYDYWGQGTQVSVSS | low polyreactivity |
| QVQLVESGAGLVQAGGSLRLSCAASGSIFYVYAMGWYRQAPGKERELVAAISSSAGSTYYADSVKGRFTISRDNAKNTVYLQMNSLKPEDTAVYYCAAKVRYSLRKYYYWGQGTQVTVSS | high polyreactivity |
| QVQLVESGAGLVQAGGSLRLSCAASGSTFAINAMGWYRQAPGKERELVAAISSRGSTNYADSVKGRFTISRDNAKNTVYLQMNSLKPEDTAVYYCAADRVWGTPQAYVPSQFDYWGQGTQVTVSS | low polyreactivity |
| QVQLVESGAGLVQAGGSLRLSCAASGSTFDSYVMGWYRQAPGKERDLVAAISRRGGSTYYADSVKGRFTISRDNAKNSVYLQMNSLKPEDTAVYYCARTVGYRTLLESDSWGQGTQVTVSS | high polyreactivity |
| QVQLVESGAGLVQAGGSLRLSCAASGSTFGINAMGWYRQAHGKEREFVASISWSTGTKYYADSVKGRFTISRDNAKNTVYLQMNSLKAEDTAVYYCAAVCSRFYGLPRYYYCGQGTQVTVSS | high polyreactivity |
| QVQLVESGAGLVQAGGSLRLSCAASGSTFPFYDMGWYRQAPGKEREFVAVISSSGGSTYYADSVKGRFTISRDNAKNTVYLQMNSLKPEDTAVYYCARRYPGRWYDYWGQGTQVTVSS | high polyreactivity |
| QVQLVESGAGLVQAGGSLRLSCAASGSTFSHNAMGWYRQEPGKESELVAAISWSGGGTYADSVKGRFTISRDNAKNTVYLQMNSLIPEDTAVYYCNKVSYPSTSSSWFDYWGKGTQVTVSS | low polyreactivity |
| QVQLVESGAGLVQAGGSLRLSCAASGSTFYGYGMGWYRQAPGKERELVAAITGSGDTTYYADSVKGRFTISRDNAKNTVYLQMNSLKPEDTAVYYCNARWHAEYDYWGQGTQVTVSS | low polyreactivity |
| QVQLVESGAGLVQAGGSLRLSCAPSGRTFGYNAMGWYRQAPGKERELVATISSSTVSTSYADSVKGRFTISRDNAKNTVYLQMNSLKPEDTAVYYCNARSRVSPTERVPYDSWGHGTQVTVSS | low polyreactivity |
| QVQLVESGAGLVQAGGSLRLSCAPSGSIFWWYAMVWYRQAPGKERELVAVISGGTSTYYADSVKGRFTISRDNAKNTVYLQMNSLKPEDTAVYYCNADVFSKVSYFRYIEYDYWGQGTQVTVSS | high polyreactivity |
| QVQLVESGAGLVQAGGSLRLSCASSGRTCDFYAMGWYRQAPGKERELVAAISSSCGSTYYADSVKGRFTISRDNAKNTVYLQMNSLKPEDTAVYYCAKDGRVHSPYDYWGQGTQVTVSS | low polyreactivity |
